Values of other authors as cited in PMC3137789.
pKd: −log10 of the molar value.

Molecular target: plexinC1 (Homo sapiens) (UniProt O60486)
UniProt O60486, sequence (O60486 35-944): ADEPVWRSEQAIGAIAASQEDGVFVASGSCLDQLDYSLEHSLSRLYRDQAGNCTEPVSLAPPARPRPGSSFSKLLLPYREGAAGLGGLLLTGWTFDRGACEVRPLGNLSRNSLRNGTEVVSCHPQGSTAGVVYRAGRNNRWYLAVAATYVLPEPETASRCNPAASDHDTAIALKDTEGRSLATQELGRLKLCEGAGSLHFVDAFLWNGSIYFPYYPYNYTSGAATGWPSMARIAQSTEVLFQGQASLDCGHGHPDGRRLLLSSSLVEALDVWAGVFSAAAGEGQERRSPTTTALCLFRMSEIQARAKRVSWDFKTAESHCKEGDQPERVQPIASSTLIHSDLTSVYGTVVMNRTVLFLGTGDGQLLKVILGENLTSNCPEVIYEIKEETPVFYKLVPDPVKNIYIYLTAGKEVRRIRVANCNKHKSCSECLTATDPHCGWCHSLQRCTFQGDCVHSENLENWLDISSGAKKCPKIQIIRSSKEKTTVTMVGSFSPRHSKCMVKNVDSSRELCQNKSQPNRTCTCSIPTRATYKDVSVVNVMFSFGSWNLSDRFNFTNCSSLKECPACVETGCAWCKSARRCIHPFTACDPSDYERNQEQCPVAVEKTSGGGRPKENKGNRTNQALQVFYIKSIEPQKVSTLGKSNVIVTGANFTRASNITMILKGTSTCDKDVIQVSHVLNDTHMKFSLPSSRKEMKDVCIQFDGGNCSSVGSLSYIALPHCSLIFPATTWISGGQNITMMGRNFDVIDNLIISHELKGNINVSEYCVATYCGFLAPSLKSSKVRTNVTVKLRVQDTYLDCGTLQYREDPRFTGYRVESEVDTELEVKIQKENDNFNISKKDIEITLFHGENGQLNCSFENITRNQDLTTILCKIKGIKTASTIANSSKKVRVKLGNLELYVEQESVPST

pKd: 6.52
Substance: Sema7A (from UniProt O75326)
